Experimental data: patent US20230406948A1 (APEXIGEN, published 2023)
No end group written: not given here.

Columns and labels:
[1] = molecular target: T1, mouse CD40 on mouse A20 cells (mouse, UniProt P27512 20-289); assay: FACS on mouse A20 cells, goat anti-human IgG (H+L) R-PE
T1 construct: whole, on cells
Procedure: Cross-reactivity of APX005 with mouse CD40 was further determined by FACS binding to a mouse A20 cell line which expresses mouse CD40. An aliquot of 0.5×10⁶ A20 cells was added to 96 well plates and incubated with 100 μl diluted rat anti-mouse CD40 antibody conjugated with PE, APX005 or IgG1 control antibodies. After washing, 100 μl Goat-anti human IgG (H+L) conjugated with R-PE (Southern Biotech CAT #2040-09) were added at 1:200 dilution in PBS to the sample and incubated for detection of APX005 and control human IgG1. A rat anti-mouse CD40 antibody conjugated with PE was used as positive control. Samples were re-suspended with 0.5 ml PBS and analyzed by FACS.

[2] = molecular target: T2, human CD40 on cells (native CD40 on Ramos cells, human B cells, human monocyte-derived dendritic cells); cell … (human, UniProt P25942 21-193); assay: FACS on Ramos cells, 30 min at 4 C, Alexa 488 goat anti-human IgG
T2 construct: Endogenous CD40 on human cells; also called native CD40 protein; CD40 positive cells
T2 sequence (P25942 21-193): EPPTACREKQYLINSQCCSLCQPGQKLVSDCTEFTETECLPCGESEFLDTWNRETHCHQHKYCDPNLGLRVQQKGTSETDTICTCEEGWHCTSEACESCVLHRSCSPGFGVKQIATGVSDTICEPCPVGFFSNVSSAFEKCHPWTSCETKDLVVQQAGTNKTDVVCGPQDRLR
Procedure: In order to assess the target mediated-internalization of APX005 for evaluating its impact on ADCC activity, Ramos cells were incubated with APX005 for 4 h at 37° C., a temperature permissive for internalization, or at 4° C. for 30 minutes, a temperature at which internalization is minimized. Cells were washed with staining buffer, followed by incubation with Alexa 488 labeled goat anti-human IgG for an additional 30 minutes at 4° C. FACS analysis was performed to examine the level of APX005 on the cell surface.

[3] = molecular target: T3, CD40 CLIPS peptide, residues 84-102 of CD40 (84TCEEGWHCTSEACESCVLH102) (human, linker (positions not given here) via CLIPS template (1,3-bis(bromomethyl)benzene); also: cysteine side chains coupled to CLIPS template(s), solid-phase bound peptide of Pepscan array); assay: PEPSCAN-based ELISA on solid-phase CLIPS peptides
T3 construct: It is the unmutated control peptide of the mutagenesis set
T3 peptide: TCEEGWHCTSEACESCVLH
Excerpt: To reconstruct discontinuous epitopes of the target molecule a library of structured peptides was synthesized. This was done using Pepscan's proprietary Chemically Linked Peptides on Scaffolds (CLIPS™) technology (Pepscan Presto, Lelystad The Netherlands) (see e.g., Timmerman et al. (2007). J. Mol. Recognit. 20:283-99; Slootstra et al. (1996). Molecular Diversity 1: 87-96). CLIPS™ technology provides the ability to structure peptides into single loops, double-loops, triple loops, sheet-like folds, helix-like folds and combinations thereof. CLIPS™ templates are coupled to cysteine residues. For this experiment, the side-chains of multiple cysteines in the peptides were coupled to one or two CLIPS™ templates. […]
The binding of antibody to each of the synthesized peptides was tested in a PEPSCAN-based ELISA. […] After one hour, the color development was measured. The color development was quantified with a charge coupled device (CCD)—camera and an image processing system.

[4] = molecular target: T4, fusion protein of rabbit Fc and OX40 (UniProt P43489 29-216); assay: direct ELISA, 1 ug/ml rabbit Fc-OX40 fusion coated, goat anti-human IgG-HRP
T4 construct: Neither the species nor the order of the parts is stated; not shown: rabbit Fc
T4 sequence (looked up): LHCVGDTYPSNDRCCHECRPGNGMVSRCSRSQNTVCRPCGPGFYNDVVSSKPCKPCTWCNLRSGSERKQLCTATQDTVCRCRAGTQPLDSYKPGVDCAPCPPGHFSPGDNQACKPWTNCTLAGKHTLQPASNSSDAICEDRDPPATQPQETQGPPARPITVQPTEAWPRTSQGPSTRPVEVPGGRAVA
Procedure: Binding selectivity of APX005 was assessed by direct ELISA to a panel of TNFR family proteins. A total of 1 μg/ml of fusion protein of rabbit Fc and CD40, RANK, TweakR, OX40, DR5 and 4-1 BB were coated on ELISA plates. Bound APX005 was detected using goat anti-human HRP-conjugated IgG.

T1 sequence (P27512 20-289): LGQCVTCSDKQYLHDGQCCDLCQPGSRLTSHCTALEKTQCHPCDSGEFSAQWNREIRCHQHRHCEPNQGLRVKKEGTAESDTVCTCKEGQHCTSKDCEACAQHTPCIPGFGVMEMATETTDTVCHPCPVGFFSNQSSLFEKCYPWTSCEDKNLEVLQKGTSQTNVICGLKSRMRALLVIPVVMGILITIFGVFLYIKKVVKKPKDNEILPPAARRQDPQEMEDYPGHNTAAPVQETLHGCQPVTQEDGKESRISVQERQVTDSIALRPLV

binding result [1]: no binding (tested: 10000 ng/ml) | EC50 (read off the curve) [2]: ~0.05 µg/mL | binding result [3]: binds | binding result [4]: no binding
B1: APX005, humanized version of the R-8 rabbit anti-CD40 antibody (antibody, IgG1, V domains shown)
VH: QVQLVESGGGVVQPGRSLRLSCAASGFSFSSTYVCWVRQAPGKGLEWIACIYTGDGTNYSASWAKGRFTISKDSSKNTVYLQMNSLRAEDTAVYFCARPDITYGFAINFWGPGTLVTVSS
VL: DIQMTQSPSSLSASVGDRVTIKCQASQSISSRLAWYQQKPGKPPKLLIYRASTLASGVPSRFSGSGSGTDFTLTISSLQPEDVATYYCQCTGYGISWPIGGGTKVEIK
notes: also called humanized R-8; APX005 wild type
